Measured values reported in patent publication US20160024487.

How the values were obtained:
[1] = tested on: T1, Lys(Dnp)-ATNATX4X3PRIVGG-Lys(Abz), X4 = K, X3 = D
T1 sequence: KATNATKDPRIVGGK

[2] = tested on: T2, Lys(Dnp)-ATNATX4X3PRIVGG-Lys(Abz), X4 = S, X3 = H
T2 sequence: KATNATSHPRIVGGK

[3] = tested on: T3, Lys(Dnp)-ATNATX4X3PRIVGG-Lys(Abz), X4 = T, X3 = S
T3 sequence: KATNATTSPRIVGGK

[4] = tested on: T4, Lys(Dnp)-ATNATX4X3PRIVGG-Lys(Abz), X4 = E, X3 = A
T4 sequence: KATNATEAPRIVGGK

[5] = tested on: T5, Lys(Dnp)-ATNATX4X3PRIVGG-Lys(Abz), X4 = Q, X3 = Q
T5 sequence: KATNATQQPRIVGGK

[6] = tested on: T6, Lys(Dnp)-ATNATX4X3PRIVGG-Lys(Abz), X4 = H, X3 = F
T6 sequence: KATNATHFPRIVGGK

[7] = tested on: T7, Lys(Dnp)-ATNATX4X3PRIVGG-Lys(Abz), X4 = G, X3 = R
T7 sequence: KATNATGRPRIVGGK

[8] = tested on: T8, Lys(Dnp)-ATNATX4X3PRIVGG-Lys(Abz), X4 = E, X3 = W
T8 sequence: KATNATEWPRIVGGK

[9] = tested on: T9, Lys(Dnp)-ATNATX4X3PRIVGG-Lys(Abz), X4 = N, X3 = H
T9 sequence: KATNATNHPRIVGGK

[10] = tested on: T10, Lys(Dnp)-ATNATX4X3PRIVGG-Lys(Abz), X4 = G, X3 = F
T10 sequence: KATNATGFPRIVGGK

[11] = tested on: T11, Lys(Dnp)-ATNATX4X3PRIVGG-Lys(Abz), X4 = G, X3 = M
T11 sequence: KATNATGMPRIVGGK

[12] = tested on: T12, Lys(Dnp)-ATNATX4X3PRIVGG-Lys(Abz), X4 = H, X3 = K
T12 sequence: KATNATHKPRIVGGK

[13] = tested on: T13, Lys(Dnp)-ATNATX4X3PRIVGG-Lys(Abz), X4 = S, X3 = D
T13 sequence: KATNATSDPRIVGGK

[14] = tested on: T14, Lys(Dnp)-ATNATX4X3PRIVGG-Lys(Abz), X4 = S, X3 = A
T14 sequence: KATNATSAPRIVGGK

[15] = tested on: T15, Lys(Dnp)-ATNATX4X3PRIVGG-Lys(Abz), X4 = S, X3 = P
T15 sequence: KATNATSPPRIVGGK

[16] = tested on: T16, Lys(Dnp)-ATNATX4X3PRIVGG-Lys(Abz), X4 = S, X3 = V
T16 sequence: KATNATSVPRIVGGK

[17] = tested on: T17, Lys(Dnp)-ATNATX4X3PRIVGG-Lys(Abz), X4 = Y, X3 = E
T17 sequence: KATNATYEPRIVGGK

[18] = tested on: T18, Lys(Dnp)-ATNATX4X3PRIVGG-Lys(Abz), X4 = M, X3 = E
T18 sequence: KATNATMEPRIVGGK

[19] = tested on: T19, Lys(Dnp)-ATNATX4X3PRIVGG-Lys(Abz), X4 = W, X3 = I
T19 sequence: KATNATWIPRIVGGK

[20] = tested on: T20, Lys(Dnp)-ATNATX4X3PRIVGG-Lys(Abz), X4 = S, X3 = Q
T20 sequence: KATNATSQPRIVGGK

[21] = tested on: T21, Lys(Dnp)-ATNATX4X3PRIVGG-Lys(Abz), X4 = D, X3 = G
T21 sequence: KATNATDGPRIVGGK

[22] = tested on: T22, Lys(Dnp)-ATNATX4X3PRIVGG-Lys(Abz), X4 = T, X3 = N
T22 sequence: KATNATTNPRIVGGK

[23] = tested on: T23, Lys(Dnp)-ATNATX4X3PRIVGG-Lys(Abz), X4 = S, X3 = W
T23 sequence: KATNATSWPRIVGGK

[24] = tested on: T24, Lys(Dnp)-ATNATX4X3PRIVGG-Lys(Abz), X4 = Y, X3 = V
T24 sequence: KATNATYVPRIVGGK

[25] = tested on: T25, Lys(Dnp)-ATNATX4X3PRIVGG-Lys(Abz), X4 = S, X3 = T
T25 sequence: KATNATSTPRIVGGK

[26] = tested on: T26, Lys(Dnp)-ATNATX4X3PRIVGG-Lys(Abz), X4 = G, X3 = K
T26 sequence: KATNATGKPRIVGGK

[27] = tested on: T27, Lys(Dnp)-ATNATX4X3PRIVGG-Lys(Abz), X4 = A, X3 = E
T27 sequence: KATNATAEPRIVGGK

[28] = tested on: T28, Lys(Dnp)-ATNATX4X3PRIVGG-Lys(Abz), X4 = H, X3 = W
T28 sequence: KATNATHWPRIVGGK

[29] = tested on: T29, Lys(Dnp)-ATNATX4X3PRIVGG-Lys(Abz), X4 = N, X3 = M
T29 sequence: KATNATNMPRIVGGK

[30] = tested on: T30, Lys(Dnp)-ATNATX4X3PRIVGG-Lys(Abz), X4 = Q, X3 = W
T30 sequence: KATNATQWPRIVGGK

[31] = tested on: T31, Lys(Dnp)-ATNATX4X3PRIVGG-Lys(Abz), X4 = E, X3 = F
T31 sequence: KATNATEFPRIVGGK

[32] = tested on: T32, Lys(Dnp)-ATNATX4X3PRIVGG-Lys(Abz), X4 = G, X3 = I
T32 sequence: KATNATGIPRIVGGK

[33] = tested on: T33, Lys(Dnp)-ATNATX4X3PRIVGG-Lys(Abz), X4 = S, X3 = M
T33 sequence: KATNATSMPRIVGGK

[34] = tested on: T34, Lys(Dnp)-ATNATX4X3PRIVGG-Lys(Abz), X4 = S, X3 = I
T34 sequence: KATNATSIPRIVGGK

[35] = tested on: T35, Lys(Dnp)-ATNATX4X3PRIVGG-Lys(Abz), X4 = G, X3 = S
T35 sequence: KATNATGSPRIVGGK

[36] = tested on: T36, Lys(Dnp)-ATNATX4X3PRIVGG-Lys(Abz), X4 = H, X3 = Q
T36 sequence: KATNATHQPRIVGGK

[37] = tested on: T37, Lys(Dnp)-ATNATX4X3PRIVGG-Lys(Abz), X4 = G, X3 = V
T37 sequence: KATNATGVPRIVGGK

[38] = tested on: T38, Lys(Dnp)-ATNATX4X3PRIVGG-Lys(Abz), X4 = E, X3 = T
T38 sequence: KATNATETPRIVGGK

[39] = tested on: T39, Lys(Dnp)-ATNATX4X3PRIVGG-Lys(Abz), X4 = H, X3 = S
T39 sequence: KATNATHSPRIVGGK

In the case of Human plasma purified Factor Xa, the FXa kcat/KM [1] is reported as 45 M⁻¹ s⁻¹, the FXa kcat/KM [2] is reported as 24 M⁻¹ s⁻¹ and the FXa kcat/KM [3] is reported as 16 M⁻¹ s⁻¹. The FXa kcat/KM [4] was 4.3 M⁻¹ s⁻¹, the FXa kcat/KM [5] was 1400 M⁻¹ s⁻¹ and the FXa kcat/KM [6] was 42 M⁻¹ s⁻¹. It also gave an FXa kcat/KM [7] of 130 M⁻¹ s⁻¹, an FXa kcat/KM [8] of 8 M⁻¹ s⁻¹ and an FXa kcat/KM [9] of 15 M⁻¹ s⁻¹. It also gave an FXa kcat/KM [10] of 35 M⁻¹ s⁻¹, an FXa kcat/KM [11] of 52 M⁻¹ s⁻¹ and an FXa kcat/KM [12] of 28 M⁻¹ s⁻¹. The FXa kcat/KM [13] was 10 M⁻¹ s⁻¹, the FXa kcat/KM [14] was 19 M⁻¹ s⁻¹ and the FXa kcat/KM [15] was 13 M⁻¹ s⁻¹. The FXa kcat/KM [16] was 38 M⁻¹ s⁻¹, the FXa kcat/KM [17] was 54 M⁻¹ s⁻¹ and the FXa kcat/KM [18] was 600 M⁻¹ s⁻¹. The FXa kcat/KM [19] was 180 M⁻¹ s⁻¹, the FXa kcat/KM [20] was 45 M⁻¹ s⁻¹ and the FXa kcat/KM [21] was 5.8 M⁻¹ s⁻¹. The FXa kcat/KM [22] was 13 M⁻¹ s⁻¹, the FXa kcat/KM [23] was 43 M⁻¹ s⁻¹ and the FXa kcat/KM [24] was 49 M⁻¹ s⁻¹. The FXa kcat/KM [25] was 32 M⁻¹ s⁻¹, the FXa kcat/KM [26] was 34 M⁻¹ s⁻¹ and the FXa kcat/KM [27] was 180 M⁻¹ s⁻¹. It also gave an FXa kcat/KM [28] of 320 M⁻¹ s⁻¹, an FXa kcat/KM [29] of 27 M⁻¹ s⁻¹ and an FXa kcat/KM [30] of 1400 M⁻¹ s⁻¹. For the same substance, the FXa kcat/KM [31] was 14 M⁻¹ s⁻¹, the FXa kcat/KM [32] was 88 M⁻¹ s⁻¹ and the FXa kcat/KM [33] was 46 M⁻¹ s⁻¹. It also gave an FXa kcat/KM [34] of 55 M⁻¹ s⁻¹, an FXa kcat/KM [35] of 49 M⁻¹ s⁻¹ and an FXa kcat/KM [36] of 160 M⁻¹ s⁻¹. It also gave an FXa kcat/KM [37] of 40 M⁻¹ s⁻¹, an FXa kcat/KM [38] of 7.9 M⁻¹ s⁻¹ and an FXa kcat/KM [39] of 60 M⁻¹ s⁻¹.
